Test results reported in patent publication US12421510B2, “Peptide, a complex and a method for treating cancer” (TECHNION RESEARCH & DEVELOPMENT FOUNDATION LIMITED, priority 2018, dated 2025).

T1: p105 (Homo sapiens, UniProt P19838)
T1 sequence (P19838 1-968): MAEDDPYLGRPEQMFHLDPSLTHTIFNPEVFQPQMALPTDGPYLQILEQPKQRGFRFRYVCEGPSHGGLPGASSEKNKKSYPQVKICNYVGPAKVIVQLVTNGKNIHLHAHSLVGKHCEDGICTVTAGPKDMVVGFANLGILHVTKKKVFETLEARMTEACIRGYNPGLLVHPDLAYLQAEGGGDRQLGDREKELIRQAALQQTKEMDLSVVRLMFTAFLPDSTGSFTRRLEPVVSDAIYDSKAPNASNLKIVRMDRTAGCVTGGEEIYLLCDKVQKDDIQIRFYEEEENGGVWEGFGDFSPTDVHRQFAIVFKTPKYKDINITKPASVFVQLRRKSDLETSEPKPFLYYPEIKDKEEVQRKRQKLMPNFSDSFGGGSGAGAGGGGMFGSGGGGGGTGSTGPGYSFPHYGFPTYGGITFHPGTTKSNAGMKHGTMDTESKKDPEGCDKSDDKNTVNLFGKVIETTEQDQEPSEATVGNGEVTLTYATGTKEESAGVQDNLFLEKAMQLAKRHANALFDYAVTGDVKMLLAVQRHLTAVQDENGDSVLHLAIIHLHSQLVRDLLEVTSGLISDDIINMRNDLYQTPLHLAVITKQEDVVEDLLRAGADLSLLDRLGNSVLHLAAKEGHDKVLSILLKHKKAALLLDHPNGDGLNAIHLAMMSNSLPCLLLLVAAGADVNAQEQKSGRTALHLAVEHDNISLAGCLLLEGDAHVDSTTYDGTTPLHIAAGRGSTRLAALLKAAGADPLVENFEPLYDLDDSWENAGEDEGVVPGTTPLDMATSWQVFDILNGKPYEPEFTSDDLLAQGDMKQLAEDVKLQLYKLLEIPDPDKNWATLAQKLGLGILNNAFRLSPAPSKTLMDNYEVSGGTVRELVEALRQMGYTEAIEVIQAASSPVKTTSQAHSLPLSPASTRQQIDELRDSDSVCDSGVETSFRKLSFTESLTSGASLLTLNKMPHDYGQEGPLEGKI

B1: KPC1-Δ1-974-6xHIS: purified 6xHIS KPC1 deleted species lacking the 7 amino acids responsible for binding to p105 (protein)
chain: RGCGFGYRYTRLPHLLKTKLEDANLPSLQKPCPSTLLQQHMADLLQQGPDVAPSFLNSVLNQLNWAFSEFIGMIQEIQQAAERLERNFVDSRQLKVCATCFDLSVSLLRVLEMTITLVPEIFLDWTRPTSEMLLRRLAQLLNQVLNRVTAERNLFDRVVTLRLPGLESVDHYPILVAVTGILVQLLVRGPASEREQATSVLLADPCFQLRSICYLLGQPEPPAPGTALPAPDRKRFSLQSYADYISADELAQVEQMLAHLTSASAQAAAASLPTSEEDLCPICYAHPISAVFQPCGHKSCKACINQHLMNNKDCFFCKTTIVSVEDWEKGANTSTTSSAA
modifications: left off: small tags and cut ends
B2: KPC1-Δ1-967-6xHIS: purified 6xHIS KPC1 deleted species that has the sequence of WILVRLW (protein)
chain: WILVRLWRGCGFGYRYTRLPHLLKTKLEDANLPSLQKPCPSTLLQQHMADLLQQGPDVAPSFLNSVLNQLNWAFSEFIGMIQEIQQAAERLERNFVDSRQLKVCATCFDLSVSLLRVLEMTITLVPEIFLDWTRPTSEMLLRRLAQLLNQVLNRVTAERNLFDRVVTLRLPGLESVDHYPILVAVTGILVQLLVRGPASEREQATSVLLADPCFQLRSICYLLGQPEPPAPGTALPAPDRKRFSLQSYADYISADELAQVEQMLAHLTSASAQAAAASLPTSEEDLCPICYAHPISAVFQPCGHKSCKACINQHLMNNKDCFFCKTTIVSVEDWEKGANTSTTSSAA
modifications: left off: small tags and cut ends
B3: KPC1: wild-type ubiquitin ligase KPC1 (RNF123), SEQ ID NO: 2 (protein)
chain: MASKGAGMSFSRKSYRLTSDAEKSRVTGIVQEKLLNDYLNRIFSSSEHAPPAATSRKPLNFQNLPEHLDQLLQVDNEEEESQGQVEGRLGPSTVVLDHTGGFEGLLLVDDDLLGVIGHSNFGTIRSTTCVYKGKWLYEVLISSQGLMQIGWCTISCRFNQEEGVGDTHNSYAYDGNRVRKWNVTTTNYGKAWAAGDIVSCLIDLDDGTLSFCLNGVSLGTAFENLSRGLGMAYFPAISLSFKESVAFNFGSRPLRYPVAGYRPLQDPPSADLVRAQRLLGCFRAVLSVELDPVEGRLLDKESSKWRLRGQPTVLLTLAHIFHHFAPLLRKVYLVEAVLMSFLLGIVEKGTPTQAQSVVHQVLDLLWLFMEDYEVQDCLKQLMMSLLRLYRFSPIVPDLGLQIHYLRLTIAILRHEKSRKFLLSNVLFDVLRSVVFFYIKSPLRVEEAGLQELIPTTWWPHCSSREGKESTEMKEETAEERLRRRAYERGCQRLRKRIEVVEELQVQILKLLLDNKDDNGGEASRYIFLTKFRKFLQENASGRGNMPMLCPPEYMVCFLHRLISALRYYWDEYKASNPHASFSEEAYIPPQVFYNGKVDYFDLQRLGGLLSHLRKTLKDDLASKANIVIDPLELQSTAMDDLDEDEEPAPAMAQRPMQALAVGGPLPLPRPGWLSSPTLGRANRFLSTAAVSLMTPRRPLSTSEKVKVRTLSVEQRTREDIEGSHWNEGLLLGRPPEEPEQPLTENSLLEVLDGAVMMYNLSVHQQLGKMVGVSDDVNEYAMALRDTEDKLRRCPKRRKDILAELTKSQKVFSEKLDHLSRRLAWVHATVYSQEKMLDIYWLLRVCLRTIEHGDRTGSLFAFMPEFYLSVAINSYSALKNYFGPVHSMEELPGYEETLTRLAAILAKHFADARIVGTDIRDSLMQALASYVCYPHSLRAVERIPEEQRIAMVRNLLAPYEQRPWAQTNWILVRLWRGCGFGYRYTRLPHLLKTKLEDANLPSLQKPCPSTLLQQHMADLLQQGPDVAPSFLNSVLNQLNWAFSEFIGMIQEIQQAAERLERNFVDSRQLKVCATCFDLSVSLLRVLEMTITLVPEIFLDWTRPTSEMLLRRLAQLLNQVLNRVTAERNLFDRVVTLRLPGLESVDHYPILVAVTGILVQLLVRGPASEREQATSVLLADPCFQLRSICYLLGQPEPPAPGTALPAPDRKRFSLQSYADYISADELAQVEQMLAHLTSASAQAAAASLPTSEEDLCPICYAHPISAVFQPCGHKSCKACINQHLMNNKDCFFCKTTIVSVEDWEKGANTSTTSSAA

Legend:
[1] = biological target: T1, p105; assay: Processing of p105 by purified proteasome in cell free system in presence of KPC1 deleted species; format: biochemical; details: 35S-labeled p105 (FIG. 7)
Description: In vitro translated and ^355-labeled p105 was processed by purified proteasome (lanes 2-7) in the presence of purified KPC1-Δ1-967-6xHIS (lanes 4-5) or KPC1-Δ1-974-6xHIS (lanes 6-7) as indicated. Lane 8 represents processing of p105 in the system that contained Fraction 2. Cell extract is fractionated over the anion-exchange resin diethylaminoethyl (DEAE)-cellulose, where ubiquitin is eluted in Fraction I, the unabsorbed, flow-through material that contains also certain E2 enzymes. Fraction II, the high salt eluate, contains E1, the remaining E2s, all the E3s, and the 26S proteasome, but not free ubiquitin. Processing is the amount of p50 produced in the reaction. All values relate to 100%, which is the set point for processing of p105 in a system that lacks proteasome and KPC1 (lane 1).

[2] = biological target: T1, p105; assay: Co-immunoprecipitation (Co-IP) of KPC1 species with p105-HA from transfected HEK293T cells; format: binding; set-up: HA; expressed in transfected cells; host or cells: HEK293T; details: anti-FLAG immunoprecipitation, anti-NF-κB1 western blot, listed as full-length KPC1
Description: FIG. 1B is a western blot showing the following: HEK293T cells were transfected with cDNAs coding for p105-HA (lanes 1-6), along with the different KPC1 species as following: W.T KPC1 (lane 1), KPC1Δ969-1314 (lane 2), KPC1Δ1-438 & 1039-1314 (lane 3), KPC1Δ1-967 (lane 4) and KPC1Δ1-1042 (lane 5). Lane 6 was transfected with an empty vector. KPC1 species were immunoprecipitated using immobilized FLAG antibodies, resolved by SDS-page, and NF-κB1 and KPC1 proteins were visualized by anti-NF-κB1 (FIG. 1B (upper)) and anti-FLAG (FIG. 1B (bottom)) antibodies, respectively. 10% of the total cell lysate was analyzed for the expression of p105-HA.
FIG. 2B is a western blot. HEK293T cells were transfected with cDNAs coding for p105-HA (lanes 1-7), along with different KPC1 species as following: WT KPC1 (lane 1), KPC1Δ1-967 (lane 2), KPC1Δ967-1043 (lane 3), KPC1Δ1-973 (lane 4), KPC1Δ1-1017 (lane 5) and KPC1ΔCC domain (lane 6). Lane 7 represents cells that were transfected with empty vector. KPC1 species were immunoprecipitated using immobilized FLAG antibodies, resolved by SDS-page. NF-κB1 and KPC1 proteins were visualized with anti-NF-κB1 (FIG. 2B (i)) and anti-FLAG (FIG. 2B (ii)) antibodies, respectively. 10% of the total cell lysate was analyzed for the expression of p105-HA. FIGS. 3A and 3B: FIG. 3A is a schematic representation of KPC1 species used in the experiment shown in FIG. 3B that was directed to evaluating the region of KPC1 that is responsible for the interaction with p105.
FIG. 3B is a western blot. HEK293T cells were transfected with cDNAs coding for p105-HA (lanes 1-12), along with different KPC1 species as following: KPC1-FLAG (lane 1), WILVRLW-KPC1 Δ 1-1253 (SEQ ID NO: 8) (lane 2), ILVRLW-KPC1 Δ 1-1253 (SEQ ID NO: 10) (lane 3), LVRLW-KPC1 Δ 1-1253 (SEQ ID NO: 11) (lane 4), VRLW-KPC1 Δ 1-1253 (lane 5) (SEQ ID NO: 12), RLW-KPC1 Δ 1-1253 (lane 6) SEQ ID NO:13), KPC1 Δ 1-1253 (lane 7), WILVRL-KPC1 Δ 1-1253 (lane 8) (SEQ ID NO: 14), WILVR-KPC1 Δ 1-1253 (SEQ ID NO: 15) (lane 9), WILV-KPC1 Δ 1-1253 (SEQ ID NO: 16) (lane 10), WIL-KPC1 Δ 1-1253 (SEQ ID NO: 17 (lane 11). Lane 12 represents cells that were transfected with empty vector. KPC1 species were immunoprecipitated using immobilized FLAG antibodies, resolved by SDS-page. NF-κB1 and KPC1 proteins were visualized by anti-NF-κB1 (FIG. 3B, (i, ii) and anti-FLAG (FIG. 3B, (iii) antibodies, respectively. 10% of the total cell lysate was analyzed for the expression of p105-HA (FIG. 3B, (ii)).
HEK293T cells were transiently transfected with the various KPC1 species along with p105-HA using the j etPEI reagent. 48 hours after transfection, the cells were harvested and lysed with RIPA buffer [150 mM NaCl, 0.5% sodium deoxycholate, 50 mM Tris-HCl (pH 8.0), 0.1% SDS, and 1% NP-40, supplemented with freshly added protease inhibitors mixture]. KPC1 species proteins were immunoprecipitated with immobilized anti-FLAG, with subsequent washing of the beads five times with RIPA buffer. The immunoprecipitated proteins were resolved by SDS-PAGE (10%, FIGS. 1A, 1B, 2A and 2B, with a gel gradient, of 4-20%; FIGS. 3A and 3B), and blotted onto nitrocellulose (FIGS. 1A, 1B, 2A and 2B) or PVDF (FIGS. 3A and 3B) membranes. p105 and KPC1 species were visualized using anti-NF-κB1 or anti-FLAG antibodies, respectively.
Identification of the region of KPC1 that is responsible for the interaction with p105. In order to identify the region of KPC1 that is responsible for the interaction with p105, several truncated segments of the DNA sequence of the KPC1 protein were cloned. The truncated segments were inserted into the pCAGGS expression vector to analyze their interaction with p105 by co-immunoprecipitation (Co-IP) from cells. HEK 293T cells were transfected with cDNAs coding for p105-HA, along with different fragments of KPC1 (FIG. 1A). Species of KPC1 were immunoprecipitated using an immobilized anti-Flag antibody. […]

[3] = system: glioblastoma U87-MG tumor; assay: Growth of U87-MG tumor xenografts overexpressing KPC1 species in nude mice; format: in vivo; details: overexpression in U87-MG cells injected to nude mice; growth rates and weights of xenografts, three weeks after inoculation
Description: FIG. 8A and FIG. 8B depict growth rates and weights of tumor xenografts grown in nude mice, and derived from U87-MG expressing V0 (control), Myc-KPC1 or Flag-WILVRLW-KPC1Δ1-1039 (SEQ ID NO: 6).
Growth rates and weights (FIG. 8B) of tumor xenografts grown in nude mice, and derived from U87-MG expressing VO (control), Myc-KPC1, and Flag-WILVRLW-KPC1Δ1-1039 (SEQ ID. No. 6).

Row | Molecule | processing of p105 by purified proteasome [1] | interaction with p105 (Co-IP) [2] | tumor growth [3]
1 | B1 | could not stimulate processing |  | 
2 | B2 | stimulates the processing of p105 by purified proteasome |  | 
3 | B3 |  | an interaction between p105 and the full-length KPC1 protein was observed | repressed glioblastoma U87-MG tumor growth
